Entries after “also recorded” stand apart in the source; their conditions may differ.
B1: wild-type CAF-1 p150: full-length mouse CAF-1 p150 expressed in rabbit reticulocyte lysate (protein)
chain: MLEEPEAATRTAAAVDCKDRPGFPVKRLIQARLPFKRLNLVPKEKVEEDTSPKAAVESKVPDLQLSLGTFESQCHTGSHVGLSTKLVGGQGPIDSFLRATIKPVPSVVIIDLTENCSDIPDSPEGHSELSPDTAGVVTTVEGAAKQQEHSAAELCLLETPSDITCHMEEEPGSPGDPKRTGDCQAGSLQSCPELTPGSRTCPTKELSSWSKAGDLLFIEKVPVVVLEDILATKPSIASLPMMSLDRSVTSESEILESCPEDDSILSHSSTNSSSPTSSPEGPSTPPEHRGGRSSPSTPACRVAKNFVKGSTEKGRSKLHRDREQQREEKEKLREEIRRAKEEARKKKEEEKELKEKERREKREKDEKEKAEKQRLKEEKRKERQEALEAKLEEKRKKEEEKRLREEEKRLREEEKRIKAEKAEITRFFQKPKTPQAPKTLAGSCGKFAPFEIKEHMVLAPRCRAALDQDLCDQLDQLLQQQSVASTFLSDLKSRLPLRSGPTRVCGHDTDIMNRDVVIVESSKVDGVSERKKFGRMKLLQFSENHRPAYWGTWNKKTAIIRPRNPWAQDKDLLDYEVDSDDEWEEEEPGESLSHSEGDEDDDVGEDEDEDDGFFVPHGYLSEDEGVTEECADPENHKVHQKLKAKEWDELLAKGKRFRVLQPVHVGCVWASEAANCTSSDLKLLQQFTACLLDVASPDEPEPGASRREKRDQHILAQLLPLLHGNVNGSKVIIHEFQEQCRRGLLTLPSPTPHLQMPNLEDAVAVPSKARLKRLISENSAYEKRPNFRMCWYVHPEVLKSFGQECLPVPCQWTYITTMPSAPREDSGSASTEGPGQSTPMLLKRKPAATMCITQFMKKRRYDGQVGSGDMDGFQADTEEDEEDDTDCMIIDVPDVGSDVSEAPIPAPTLCK
modifications: [35S]-methionine labelled
B2: R426D mutant: full-length mouse CAF-1 p150 with R426D, expressed in rabbit reticulocyte lysate (protein)
chain: MLEEPEAATRTAAAVDCKDRPGFPVKRLIQARLPFKRLNLVPKEKVEEDTSPKAAVESKVPDLQLSLGTFESQCHTGSHVGLSTKLVGGQGPIDSFLRATIKPVPSVVIIDLTENCSDIPDSPEGHSELSPDTAGVVTTVEGAAKQQEHSAAELCLLETPSDITCHMEEEPGSPGDPKRTGDCQAGSLQSCPELTPGSRTCPTKELSSWSKAGDLLFIEKVPVVVLEDILATKPSIASLPMMSLDRSVTSESEILESCPEDDSILSHSSTNSSSPTSSPEGPSTPPEHRGGRSSPSTPACRVAKNFVKGSTEKGRSKLHRDREQQREEKEKLREEIRRAKEEARKKKEEEKELKEKERREKREKDEKEKAEKQRLKEEKRKERQEALEAKLEEKRKKEEEKRLREEEKRLREEEKRIKAEKAEITDFFQKPKTPQAPKTLAGSCGKFAPFEIKEHMVLAPRCRAALDQDLCDQLDQLLQQQSVASTFLSDLKSRLPLRSGPTRVCGHDTDIMNRDVVIVESSKVDGVSERKKFGRMKLLQFSENHRPAYWGTWNKKTAIIRPRNPWAQDKDLLDYEVDSDDEWEEEEPGESLSHSEGDEDDDVGEDEDEDDGFFVPHGYLSEDEGVTEECADPENHKVHQKLKAKEWDELLAKGKRFRVLQPVHVGCVWASEAANCTSSDLKLLQQFTACLLDVASPDEPEPGASRREKRDQHILAQLLPLLHGNVNGSKVIIHEFQEQCRRGLLTLPSPTPHLQMPNLEDAVAVPSKARLKRLISENSAYEKRPNFRMCWYVHPEVLKSFGQECLPVPCQWTYITTMPSAPREDSGSASTEGPGQSTPMLLKRKPAATMCITQFMKKRRYDGQVGSGDMDGFQADTEEDEEDDTDCMIIDVPDVGSDVSEAPIPAPTLCK
modifications: [35S]-methionine labelled

Legend:
PCNA = assay: Crystal model of p150 PIP bound to PCNA; assay type: binding, human; conditions: synthetic 20-amino acid peptide, crystals at pH 5, resolution 46.2–2.4 Å; only RFF residues modelled; model could not be refined further
Experimental: In order to better understand the molecular basis of CAF-1 binding to PCNA, we determined the crystal model of a complex between a synthetic peptide encompassing the p150 PIP and PCNA. The crystal model was solved using molecular replacement from a previously published PCNA structure (Table 1 and Materials and Methods). PCNA samples were incubated with a 20-amino acid PIP derived from CAF-1 p150. The PIP used for crystallization, […] (PIP residues in italics), spanned the entire PIP region.
A CAF-1 p150 synthetic peptide with the sequence […] was synthesized at the University of Cambridge in-house protein and nucleic acid facility (PNAC). For use in crystallization trials, the synthetic peptide was dissolved in demineralized water to a concentration of 23 mM. Initial crystallization conditions were further refined and optimized with the help of the PACT suite (Qiagen) and Additive Screen (Hampton Research), which contain multiple reagent libraries that enhance the solubility and crystallization of biological macromolecules. […]
The eluate was subsequently purified with a Superdex™ 200 gel filtration column (GE Healthcare) in gel filtration buffer 20 mM Tris pH 7.5, 150 mM NaCl, 1 mM DTT. The fractions corresponding to PCNA homotrimer were pooled, concentrated with an amicon concentrator with 3 kDa MWCO, quantified using absorbance at A280 nm, and stored at - […]

[1] = tested on: DNA replication-coupled nucleosome assembly (S100 extract from human HEK-293 cells); assay: Replication-dependent nucleosome assembly assay (SV40 DNA replication, S100 extract); assay type: biochemical; conditions: increasing amounts of in vitro translated p150 (rCAF-1: positive control), 45 min + 45 min at 37 °C, autoradiography
Text: We next sought to compare the activities of CAF-1 p150, wild-type, and the R426D mutant in a replication-coupled chromatin assembly assay. As a first step to performing this assay, we expressed CAF-1 p150 wild-type and the R426D mutant in a rabbit reticulocyte lysate coupled transcription and translation system and labelled the proteins with [^35S]-methionine. […] In the replication coupled chromatin assembly system, an S100 extract from cultured human HEK-293 cells provides all the cellular DNA replication enzymes and histones but lacks CAF-1 p150 [37]. To this extract, a plasmid containing an SV40 origin of replication and the viral replication protein, SV40 large T antigen, were added to support SV40 DNA replication. Radiolabeled dATP was also added to visualize the replication products by autoradiography.
In contrast, when the recombinant CAF1 protein (p150, p60, p48) or the p150 subunit alone are added, they bind to histones in the S100 extract and promote nucleosome assembly coupled with DNA replication. DNA topoisomerase enzyme I, which is present in the S100 extract (and further supplemented in these assays to ensure sufficient levels), removes the positive supercoiling in the linker DNA that connects nucleosomes, leaving negative supercoiling due to DNA wrapping around histone octamers (evident upon subsequent removal of the histones and electrophoresis).
Replication reactions were assembled as previously reported. […]
The reactions were extracted using phenol, chloroform, and isoamyl alcohol (25:24:1) and the DNA was then precipitated with sodium acetate and ethanol. […] The products of replication were analyzed using a native 1.25% agarose gel in 1X TAE buffer with 1 mM MgCl2, without the addition of ethidium bromide. […] The gel was subsequently imaged and analyzed using a phosphor imager (Typhoon FLA 7000) to visualize the replicated DNA.

Row | Molecule | binding mode to PCNA in crystal model (PCNA) | supercoiling of replicated DNA / nucleosome assembly [1] | supercoiling of replicated DNA / nucleosome assembly ([1]; listed as CAF-1 R426D mutant)
1 | IKAEKAEITRFFQKPKTPQA [CAF-1 p150 PIP] | one CAF-1 p150 PIP bound to each PCNA monomer; also recorded: forms a cation-π interaction with Tyr 250 of PCNA |  | 
2 | B1 |  | the replication products were supercoiled | 
3 | B2 |  | much less supercoiling was observed | deficient in nucleosome assembly
